Laboratory results published in patent publication US12281162 (LANOVA MEDICINES DEVELOPMENT, dated 2025).
Substitutions are numbered along the chain they refer to.

B1: 37B9C4-XI (antibody, V domains shown)
VH: EVNLEESGGGLVQPGGSMKLSCVASGFTFSDYWMNWVRQSPEKGLEWVAEIRLKSNNYATHYAESVKGRFTISRDDSKSSVYLQMNNLRAEDTGIYYCTRPLLWFRRYYAMDYWGQGTSVTVSS
VL: DIQMTQTTSSLSASLGDRITISCSASQGISNYLNWYQQKPDGTVKLLIYYTSSLHSGVPSRFSGSGSGTDYSLTISNLEPADIATYYCQQYSKLPFTFGSGTKLEIK
notes: also called 37B9C4 (chimeric); 37-XI
B2: 37-H1L1 (antibody, V domains shown)
VH: EVQLVESGGGLVQPGGSLRLSCAASGFTFSDYWMNWVRQAPGKGLEWVAEIRLKSNNYATHYAESVKGRFTISRDNAKNSLYLQMNSLRAEDTAVYYCARPLLWFRRYYAMDYWGQGTLVTVSS
VL: DIQMTQSPSSLSASVGDRVTITCSASQGISNYLNWYQQKPGKAPKLLIYYTSSLHSGVPSRFSGSGSGTDFTLTISSLQPEDFATYYCQQYSKLPFTFGQGTKLEIK
notes: humanized 37B9C4, VH v1 x VL v1; also called 37B9C4 (H1L1)
B3: 34-H1L1 (antibody, V domains shown)
VH: EVQLVESGGGLVKPGGSLRLSCAASGFTFSSYGMSWVRQAPGKGLEWVSTISSGGSYTYYPDSVKGRFTISRDNAKNSLYLQMNSLRAEDTAVYYCARQGGDAMDYWGQGTLVTVSS
VL: DIQMTQSPSSLSASVGDRVTITCRASQSINNNLHWYQQKPGKAPKLLIYYASQSISGVPSRFSGSGSGTDFTLTISSLQPEDFATYYCQQSNSRLTFGGGTKVEIK
notes: humanized 34D3H1, VH v1 x VL v1
B4: 34-XI (antibody, V domains shown)
VH: EVHLVESGGDLVKPGGSLKLSCAASGFTFSSYGMSWVRQTPDKRLEWVATISSGGSYTYYPDSVKGRFTISRDNAKNTLNLQMSSLKSEDTAMYYCARQGGDAMDYWGQGTSVTVSS
VL: DIVLTQSPATLSVTPGDSVSLSCRASQSINNNLHWYQQKSHESPRLLIKYASQSISGIPSRFSGSGSGTDFTLSINSVETEDFGMYFCQQSNSRLTFGAGTKLELK
notes: also called 34D3H1 (chimeric)
B5: 58F9G10-XI (antibody, V domains shown)
VH: EVQLQQSGPELVKTGASVKISCKASGYSFTGYYIHWVKQSHGKSLEWIGYISCYNGATSFNQKFKGKATFTVDTSSSTAYMQFNSLTSEDSAVYYCARTELRGPWFAYWGQGTLVTVSA
VL: QTVLTQSPAIMSASPGEKVTMTCSASSSVSYMNWYQQKSGTSPKRWIYDTSKLASGVPARFSGSGSGTSYSLTISSMEAEDAATYYCQQWSNNPLTFGAGTKLELK
notes: also called 58F9G10 (chimeric); 58-XI
B6: 21C3C11B3 (chimeric) (antibody, V domains shown)
VH: QVQLQQSGAELVRPGTSVKVSCKASGYAFINYLIEWIKQRPGQGLEWIGMINPGSGGTNYNEKFKDKATLTADKSSSTAYMQLSSLTSDDSAVYFCARNWDVWGQGTTLTVSS
VL: DVVMTQSPLSLPVSLGDQASVSCRSSQSLVHSTGNTYLHWYLQKPGQSPKLLIYKVSNRFSGVPDRFSGSGSGTDFTLKISRVEAEDLGVYFCSQSTHVPWTFGGGTKLEIK
B7: 38A10E9A11 (chimeric) (antibody, V domains shown)
VH: QVQLQQSGAELARPGASVKMSCKASGYTFTTYTMHWVKQRPGQGLEWIGYINPSSGYTNYNQKFKDKATLTAGKSSSTAYMQLSSLTSEDSAVYYCASLRSRGYFDYWGRGTTLTVSS
VL: DIVMTQSQKFLSTSVGDRVSITCKASQNVGTAVAWYQQKPGQSPKLLIYSASNRYTGVPDRFTGSGSGTDFTLTISNMQSEDLAGYFCQQYSSYPYTFGGGTKLEIK
notes: also called 38A9E10A11
B8: 29B2C10 (chimeric) (antibody, V domains shown)
VH: EVQLQQSGPELVKPGASMKLSCKASGYSFTGYTMHWVKQSHGENLEWIGLINPYNGGTNYNQKFKGKATLTVDKSSSTAYMELLSLTSEDSAVYYCSRWGLRRAMDYWGQGTSVTVSS
VL: DIVMTQSQKFMSTSVGDRVSVTCKASQNVGSNVAWYQQKPGQSPKALIYSASYRYSGVPDRFTGNGSGTDFTLTISNVQSEDLAEYFCQQYYNSPWTFGGGTKLEIK
B9: 40A5B2 (chimeric) (antibody, V domains shown)
VH: EVQLQQSGPELVKPGASVKMSCKASGYTFTRNIMHWVKQKPGQGLEWIGYINPYNAGSKYNEKFKGKATLTSDISSSTAYMELSSLTSEDSAVYYCAREEVYYRYGAWFAYWGHGTLVTVSA
VL: DIVLTQSPASLAVSLGQRATISCRASQSVSTSSYSYMHWYQQKPGQPPKLLIKYASNLESGVPARFSGSGSGTDFTLNIHPVEEEDTATYYCQHSWEIPRTFGGGTKLEIK
B10: 6-H1L1 (antibody, V domains shown)
VH: QVQLVQSGAEVKKPGASVKVSCKASGYTFTTYTMHWVRQAPGQGLEWMGYINPSSGYTNYNQKFKDRVTMTRDTSTSTVYMELSSLRSEDTAVYYCSRLRSRGYFDYWGQGTLVTVSS
VL: DIQLTQSPSFLSASVGDRVTITCKASQNVGTAVVWYQQKPGKAPKLLIYSASNRYTGVPSRFSGSGSGTEFTLTISSLQPEDFATYYCQQYSSYPYTFGQGTKLEIK
notes: humanized 6G10D9, VH v1 x VL v1
B11: 6-H3L1 (antibody, V domains shown)
VH: B10 VH with K12A, R38K, M48L, R72A, S97A, R98S
VL: B10 VL
notes: humanized 6G10D9, VH v3 x VL v1
B12: 6-H3L2 (antibody, V domains shown)
VH: B10 VH with K12A, R38K, M48L, R72A, S97A, R98S
VL: B10 VL with A13T, A43S, Y86F
notes: humanized 6G10D9, VH v3 x VL v2

target: T1, human G-protein-coupled receptor family C group 5 member D (GPRC5D) (human, UniProt Q9NZD1 1-345); assay: FACS, NCI-H929 cells
T1 construct: whole, on cells; also called human GPRC5D protein
T1 sequence (Q9NZD1 whole entry): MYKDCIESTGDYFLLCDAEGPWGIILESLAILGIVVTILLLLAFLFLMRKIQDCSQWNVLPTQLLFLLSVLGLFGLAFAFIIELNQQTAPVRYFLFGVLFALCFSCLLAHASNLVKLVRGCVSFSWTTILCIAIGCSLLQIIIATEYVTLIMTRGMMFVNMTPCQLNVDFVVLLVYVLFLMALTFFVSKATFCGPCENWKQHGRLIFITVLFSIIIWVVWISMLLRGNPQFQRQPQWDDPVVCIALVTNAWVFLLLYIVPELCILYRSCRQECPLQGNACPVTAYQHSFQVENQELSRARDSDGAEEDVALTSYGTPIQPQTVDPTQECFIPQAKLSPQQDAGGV

Bottom	LogEC50	Span	Top	Binder
338	-0.0562	13500	13800	B1
342	-0.199	13200	13500	B2
199	0.805	17700	17900	B3
181	0.759	18000	18100	B4
261	0.16	14500	14700	B5

target: T1, human G-protein-coupled receptor family …; assay: FACS, CHO-K1/GPRC5D

Bottom	LogEC50	Span	Top	Binder
11700	0.236	177000	188000	B1
9600	0.357	169000	178000	B2

target: T1, human G-protein-coupled receptor family …; assay: FACS, CHO-K1/human GPRC5D, chimeric antibody
Method: CHO—K1 cells stably expressed human GPRC5D, were harvested from flasks. 100 µl of 1×10⁶ cells/ml of cells were incubated with primary chimeric antibodies in 3-fold serial dilutions starting from 300 nM to 0.001 nM for 30 minutes on ice. After being washed with 200 µl of FACS buffer twice, cells were incubated with secondary antibody for 30 minutes on ice. Cells were washed with 200 µl of FACS buffer twice and transferred to BD Falcon 5 ml tube and analyzed by FACS.

Bottom	LogEC50	Span	Top	Binder
5770	0.229	398000	404000	B6
3020	0.245	384000	387000	B7
2080	0.249	403000	405000	B1
4330	0.342	426000	430000	B8
1490	0.344	439000	440000	B9
3450	0.521	504000	508000	B4
-522	0.36	415000	415000	B5

target: T1, human G-protein-coupled receptor family …; assay: FACS, CHO-K1/human GPRC5D

Bottom	LogEC50	Span	Top	Binder
793	0.388	113000	113000	B1
523	0.511	102000	102000	B2
171	0.781	119000	119000	B3
689	0.578	117000	118000	B4
52.2	0.556	107000	107000	B5

target: T1, human G-protein-coupled receptor family …; assay: FACS, CHO-K1/GPRC5D; remark: another data set of the same source

Bottom	LogEC50	Span	Top	Binder
6700	0.292	121000	127000	B5

target: T1, human G-protein-coupled receptor family …; assay: FACS, CHO-K1/GPRC5D; remark: another data set of the same source

Bottom	LogEC50	Span	Top	Binder
10900	0.591	186000	197000	B3
16500	0.495	176000	192000	B4

target: T1, human G-protein-coupled receptor family …; assay: FACS, CHO-K1/GPRC5D; remark: another data set of the same source

Bottom	LogEC50	Span	Top	Binder
193	~3.1	~6200	~6400	B10
-205	2.35	74500	74300	B11
68.9	2.24	47400	47500	B12
